Results published in the supplement of paper PMC11246515.
± gives the standard deviation of the averaged measurements.

Assay: total protein half-life in vivo (active degradation + dilution); higher = more stable protein
[1] = E. coli NCM3722 delta-clpP delta-lon delta-hslV, growth: N-lim chemostat, doubling time 6 h
[2] = E. coli NCM3722 delta-hslV, growth: N-lim chemostat, doubling time 6 h
[3] = E. coli NCM3722 delta-lon, growth: N-lim chemostat, doubling time 6 h
[4] = E. coli NCM3722 delta-smpB, growth: N-lim chemostat, doubling time 6 h
[5] = wild type E. coli NCM3722, growth: C-lim chemostat, doubling time 3 h
[6] = wild type E. coli NCM3722, growth: C-lim chemostat, doubling time 6 h
[7] = wild type E. coli NCM3722, growth: C-lim chemostat, doubling time 12 h
[8] = wild type E. coli NCM3722, growth: N-lim chemostat, doubling time 6 h
[9] = wild type E. coli NCM3722, growth: N-lim chemostat, doubling time 12 h
[10] = wild type E. coli NCM3722, growth: P-lim chemostat, doubling time 6 h
[11] = wild type E. coli NCM3722, growth: P-lim chemostat, doubling time 12 h
[12] = E. coli NCM3722 delta-clpP, growth: N-lim chemostat, doubling time 6 h

| Sequence | total protein half-life in vivo [1] [h] | total protein half-life in vivo [2] [h] | total protein half-life in vivo [3] [h] | total protein half-life in vivo [4] [h] | total protein half-life in vivo [5] [h] | total protein half-life in vivo [6] [h] | total protein half-life in vivo [7] [h] | total protein half-life in vivo [8] [h] | total protein half-life in vivo [9] [h] | total protein half-life in vivo [10] [h] | total protein half-life in vivo [11] [h] | total protein half-life in vivo [12] [h] |
| --- | --- | --- | --- | --- | --- | --- | --- | --- | --- | --- | --- | --- |
| MSSFDYLKTAIKQQGCTLQQVADASGMTKGYLSQLLNAKIKSPSAQKLEALHRFLGLEFPRQKKTIGVVFGKFYPLHTGHIYLIQRACSQVDELHIIMGFDDTRDRALFEDSAMSQQPTVPDRLRWLLQTFKYQKNIRIHAFNEEGMEPYPHGWDVWSNGIKKFMAEKGIQPDLIYTSEEADAPQYMEHLGIETVLVDPKRTFMSISGAQIRENPFRYWEYIPTEVKPFFVRTVAILGGESSGKSTLVNKLANIFNTTSAWEYGRDYVFSHLGGDEIALQYSDYDKIALGHAQYIDFAVKYANKVAFIDTDFVTTQAFCKKYEGREHPFVQALIDEYRFDLVILLENNTPWVADGLRSLGSSVDRKEFQNLLVEMLEENNIEFVRVEEEDYDSRFLRCVELVREMMGEQR | 5.91 ± 0.15 | 5.88 ± 0.4 | 6.4 ± 0.35 | 5.71 ± 0.23 | 2.975 ± 0.013 | 5.76 ± 0.61 | 10.5 ± 1.5 | 5.3 ± 0.24 | 10.6 ± 1.9 | 5.97 ± 0.31 | 10.8 ± 0.14 | – |
| MSSISLIQPDRDLFSWPQYWAACFGPAPFLPMSREEMDQLGWDSCDIILVTGDAYVDHPSFGMAICGRMLEAQGFRVGIIAQPDWSSKDDFMRLGKPNLFFGVTAGNMDSMINRYTADRRLRHDDAYTPDNVAGKRPDRATLVYTQRCKEAWKDVPVILGGIEASLRRTAHYDYWSDTVRRSVLVDSKADMLMFGNGERPLVEVAHRLAMGEPISEIRDVRNTAIIVKEALPGWSGVDSTRLDTPGKIDPIPHPYGEDLPCADNKPVAPKKQEAKAVTVQPPRPKPWEKTYVLLPSFEKVKGDKVLYAHASRILHHETNPGCARALMQKHGDRYVWINPPAIPLSTEEMDSVFALPYKRVPHPAYGNARIPAYEMIRFSVNIMRGCFGGCSFCSITEHEGRIIQSRSEDSIINEIEAIRDTVPGFTGVISDLGGPTANMYMLRCKSPRAEQTCRRLSCVYPDICPHMDTNHEPTINLYRRARDLKGIKKILIASGVRYDIAVEDPRYIKELATHHVGGYLKIAPEHTEEGPLSKMMKPGMGSYDRFKELFDTYSKQAGKEQYLIPYFISAHPGTRDEDMVNLALWLKKHRFRLDQVQNFYPSPLANSTTMYYTGKNPLAKIGYKSEDVFVPKGDKQRRLHKALLRYHDPANWPLIRQALEAMGKKHLIGSRRDCLVPAPTIEEMREARRQNRNTRPALTKHTPMATQRQTPATAKKASSTQSRPVNAGAKKRPKAAVGR | 5.41 ± 1.1 | – | 0.614 | – | 0.206 | – | – | – | – | – | 1.72 | 1.08 |
| MSSKVEQLRAQLNERILVLDGGMGTMIQSYRLNEADFRGERFADWPCDLKGNNDLLVLSKPEVIAAIHNAYFEAGADIIETNTFNSTTIAMADYQMESLSAEINFAAAKLARACADEWTARTPEKPRYVAGVLGPTNRTASISPDVNDPAFRNITFDGLVAAYRESTKALVEGGADLILIETVFDTLNAKAAVFAVKTEFEALGVELPIMISGTITDASGRTLSGQTTEAFYNSLRHAEALTFGLNCALGPDELRQYVQELSRIAECYVTAHPNAGLPNAFGEYDLDADTMAKQIREWAQAGFLNIVGGCCGTTPQHIAAMSRAVEGLAPRKLPEIPVACRLSGLEPLNIGEDSLFVNVGERTNVTGSAKFKRLIKEEKYSEALDVARQQVENGAQIIDINMDEGMLDAEAAMVRFLNLIAGEPDIARVPIMIDSSKWDVIEKGLKCIQGKGIVNSISMKEGVDAFIHHAKLLRRYGAAVVVMAFDEQGQADTRARKIEICRRAYKILTEEVGFPPEDIIFDPNIFAVATGIEEHNNYAQDFIGACEDIKRELPHALISGGVSNVSFSFRGNDPVREAIHAVFLYYAIRNGMDMGIVNAGQLAIYDDLPAELRDAVEDVILNRRDDGTERLLELAEKYRGSKTDDTANAQQAEWRSWEVNKRLEYSLVKGITEFIEQDTEEARQQATRPIEVIEGPLMDGMNVVGDLFGEGKMFLPQVVKSARVMKQAVAYLEPFIEASKEQGKTNGKMVIATVKGDVHDIGKNIVGVVLQCNNYEIVDLGVMVPAEKILRTAKEVNADLIGLSGLITPSLDEMVNVAKEMERQGFTIPLLIGGATTSKAHTAVKIEQNYSGPTVYVQNASRTVGVVAALLSDTQRDDFVARTRKEYETVRIQHGRKKPRTPPVTLEAARDNDFAFDWQAYTPPVAHRLGVQEVEASIETLRNYIDWTPFFMTWSLAGKYPRILEDEVVGVEAQRLFKDANDMLDKLSAEKTLNPRGVVGLFPANRVGDDIEIYRDETRTHVINVSHHLRQQTEKTGFANYCLADFVAPKLSGKADYIGAFAVTGGLEEDALADAFEAQHDDYNKIMVKALADRLAEAFAEYLHERVRKVYWGYAPNENLSNEELIRENYQGIRPAPGYPACPEHTEKATIWELLEVEKHTGMKLTESFAMWPGASVSGWYFSHPDSKYYAVAQIQRDQVEDYARRKGMSVTEVERWLAPNLGYDAD | 5.12 ± 0.36 | 3.71 ± 0.047 | 3.96 ± 0.33 | 3.31 ± 0.087 | 2.73 ± 0.051 | 5.05 ± 0.14 | 8.09 ± 0.26 | 3.489 ± 0.028 | 5.48 ± 0.14 | 5.43 ± 0.51 | 9.81 ± 0.4 | 4.3 ± 0.33 |
| MSSLQILQGTFRLSDTKTLQLPQLTLNAGDSWAFVGSNGSGKSALARALAGELPLLKGERQSQFSHITRLSFEQLQKLVSDEWQRNNTDMLGPGEDDTGRTTAEIIQDEVKDAPRCMQLAQQFGITALLDRRFKYLSTGETRKTLLCQALMSEPDLLILDEPFDGLDVASRQQLAERLASLHQSGITLVLVLNRFDEIPEFVQFAGVLADCTLAETGAKEELLQQALVAQLAHSEQLEGVQLPEPDEPSARHALPANEPRIVLNNGVVSYNDRPILNNLSWQVNPGEHWQIVGPNGAGKSTLLSLVTGDHPQGYSNDLTLFGRRRGSGETIWDIKKHIGYVSSSLHLDYRVSTTVRNVILSGYFDSIGIYQAVSDRQQKLVQQWLDILGIDKRTADAPFHSLSWGQQRLALIVRALVKHPTLLILDEPLQGLDPLNRQLIRRFVDVLISEGETQLLFVSHHAEDAPACITHRLEFVPDGGLYRYVLTKIY | 4.48 ± 0.27 | 3.5748 ± 0.0019 | 4.54 ± 0.7 | 4 ± 0.68 | 2.84 ± 0.087 | 5.233 ± 0.03 | 9.21 ± 0.47 | 3.942 ± 0.016 | 5.56 ± 0.14 | 5.68 ± 0.2 | 12 ± 0.93 | 4.73 ± 1.6 |
| MSSLSQAASSVEKRTNARYWIVVMLFIVTSFNYGDRATLSIAGSEMAKDIGLDPVGMGYVFSAFSWAYVIGQIPGGWLLDRFGSKRVYFWSIFIWSMFTLLQGFVDIFSGFGIIVALFTLRFLVGLAEAPSFPGNSRIVAAWFPAQERGTAVSIFNSAQYFATVIFAPIMGWLTHEVGWSHVFFFMGGLGIVISFIWLKVIHEPNQHPGVNKKELEYIAAGGALINMDQQNTKVKVPFSVKWGQIKQLLGSRMMIGVYIGQYCINALTYFFITWFPVYLVQARGMSILKAGFVASVPAVCGFIGGVLGGIISDWLMRRTGSLNIARKTPIVMGMLLSMVMVFCNYVNVEWMIIGFMALAFFGKGIGALGWAVMADTAPKEISGLSGGLFNMFGNISGIVTPIAIGYIVGTTGSFNGALIYVGVHALIAVLSYLVLVGDIKRIELKPVAGQ | – | – | – | – | – | 5.06 | – | – | – | – | – | – |
| MSSNTFTLGTKSVNRLGYGAMQLAGPGVFGPPRDRHVAITVLREALALGVNHIDTSDFYGPHVTNQIIREALYPYSDDLTIVTKIGARRGEDASWLPAFSPAELQKAVHDNLRNLGLDVLDVVNLRVMMGDGHGPAEGSIEASLTVLAEMQQQGLVKHIGLSNVTPTQVAEARKIAEIVCVQNEYNIAHRADDAMIDALAHDGIAYVPFFPLGGFTPLQSSTLSDVAASLGATPMQVALAWLLQRSPNILLIPGTSSVAHLRENMAAEKLHLSEEVLSTLDGISRE | 5.35 ± 0.76 | 4.87 | 4.74 ± 1 | 4.18 ± 0.88 | 3.27 ± 0.3 | 5.527 ± 0.039 | 10.8 ± 0.75 | 5.01 | 8.77 | 6.443 ± 0.061 | 12.2 ± 0.21 | 4.8 ± 0.14 |
